# Earlier results in article PMC11727785.
# Read-outs that look alike come from different tables or passages of the source.
# Assays:
# [1] = target: IL-18 receptor alpha chain (Homo sapiens) (UniProt Q13478)
# [2] = target: IL-18 receptor complex (Homo sapiens) (UniProt Q13478)
# [3] = target: IL-18 (Homo sapiens) (UniProt Q14116)
# [4] = target: IL-18 (Homo sapiens) (UniProt Q14116); experiment: SPR
# IL-18 (Homo sapiens), sequence (Q14116 37-193): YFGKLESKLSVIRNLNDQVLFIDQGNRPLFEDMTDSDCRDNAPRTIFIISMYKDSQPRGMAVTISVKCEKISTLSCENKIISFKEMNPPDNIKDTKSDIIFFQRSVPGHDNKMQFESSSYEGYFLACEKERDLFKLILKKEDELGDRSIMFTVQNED
# IL-18, sequence (Q14116 37-193): as above
# IL-18BP, sequence (O95998 31-194): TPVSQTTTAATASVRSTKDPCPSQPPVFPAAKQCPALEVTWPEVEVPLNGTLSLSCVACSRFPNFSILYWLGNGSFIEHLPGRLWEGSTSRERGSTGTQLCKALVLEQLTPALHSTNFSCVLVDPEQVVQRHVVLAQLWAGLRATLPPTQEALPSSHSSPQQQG
# IL-18 receptor alpha chain (Homo sapiens), sequence (Q13478 19-541): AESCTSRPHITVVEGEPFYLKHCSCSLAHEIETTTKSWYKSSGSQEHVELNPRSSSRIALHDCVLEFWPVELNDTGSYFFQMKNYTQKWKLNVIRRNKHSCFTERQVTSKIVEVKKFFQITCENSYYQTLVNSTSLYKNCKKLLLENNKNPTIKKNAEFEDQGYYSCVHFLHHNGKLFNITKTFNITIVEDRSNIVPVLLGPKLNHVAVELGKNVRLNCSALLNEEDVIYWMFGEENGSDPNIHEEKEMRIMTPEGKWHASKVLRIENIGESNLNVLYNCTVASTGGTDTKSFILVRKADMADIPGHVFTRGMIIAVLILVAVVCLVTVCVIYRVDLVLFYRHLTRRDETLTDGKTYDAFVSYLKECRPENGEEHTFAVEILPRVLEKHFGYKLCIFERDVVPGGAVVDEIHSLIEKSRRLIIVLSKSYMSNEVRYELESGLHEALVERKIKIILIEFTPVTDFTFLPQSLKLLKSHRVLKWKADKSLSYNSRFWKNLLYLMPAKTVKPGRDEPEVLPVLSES
# IL-18 receptor complex (Homo sapiens), sequence (Q13478 19-541, chain 1 of 2): as the sequence (Q13478 19-541) above
# IL-18 receptor complex (Homo sapiens), sequence (O95256 20-599, chain 2 of 2, further chain): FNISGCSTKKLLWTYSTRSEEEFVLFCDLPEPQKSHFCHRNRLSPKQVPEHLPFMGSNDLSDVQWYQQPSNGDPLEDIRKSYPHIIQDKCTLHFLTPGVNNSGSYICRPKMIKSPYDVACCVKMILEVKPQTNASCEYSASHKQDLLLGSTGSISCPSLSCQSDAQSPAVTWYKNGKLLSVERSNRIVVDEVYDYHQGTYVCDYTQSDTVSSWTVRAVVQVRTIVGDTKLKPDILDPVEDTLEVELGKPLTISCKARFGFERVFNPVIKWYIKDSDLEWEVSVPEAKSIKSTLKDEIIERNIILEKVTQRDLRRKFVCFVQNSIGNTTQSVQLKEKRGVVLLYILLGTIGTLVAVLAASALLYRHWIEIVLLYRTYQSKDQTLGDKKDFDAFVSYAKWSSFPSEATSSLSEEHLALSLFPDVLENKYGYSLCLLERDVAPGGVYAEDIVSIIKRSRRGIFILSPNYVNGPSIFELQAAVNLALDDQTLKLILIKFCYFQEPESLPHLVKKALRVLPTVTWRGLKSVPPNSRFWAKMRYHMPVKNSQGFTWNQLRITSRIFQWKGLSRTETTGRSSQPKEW
Kd [1],Kd [2],Substance,Kd [3],Kd [4]
18.5 nM,0.4 nM,IL-18 (from UniProt Q14116),,
,,IL-18BP (from UniProt O95998),0.05 nM,0.4 nM
